From patent US20220089710A1, “Method of Treating Signs and Symptoms of Osteoarthritis” (Pfizer Inc., priority 2019, published 2022)

How the values were obtained:
[1] = system: patients with OA of the knee or hip; test: Example 2: safety, including adjudication of joint safety events; assay type: in vivo, human
Description: Key inclusion criteria were Western Ontario and McMaster Universities Osteoarthritis Index (WOMAC) Pain and Physical Function scores in the index joint; a Patient Global Assessment of OA (PGA-OA) score of fair, poor, or very poor; a history of insufficient pain relief or intolerance to acetaminophen, oral NSAID, and either tramadol or opioids (or unwilling to take opioids). […] Co-primary endpoints were change from baseline in WOMAC Pain, WOMAC Physical Function, and PGA-OA scores at week 24 compared with placebo. Three key secondary endpoints were: reduction in the WOMAC Pain subscale of 50%, at Week 24, WOMAC Pain subscale change from Baseline to Week 2, and weekly average pain score (based on daily diary) in the index joint change from Baseline to Week 1. Safety, including adjudication of joint safety events, was assessed.

[2] = system: patients with osteoarthritis (OA) of the knee or hip; test: Example 3: treatment-emergent adverse events and deaths, Safety Population;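 further: seven SC injections given 8 weeks apart plus twice-daily oral study medication up to Week 56, Safety Population of all patients dosed at least once SC, analyzed by treatment actually received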
Description: Patients received a total of seven SC injections, each separated by 8 weeks and daily oral (PO) study medication BID through Week 56.
The Intent-to-Treat (ITT) Population included all patients who were randomized and received at least one dose of SC study drug. This analysis set was primary for all efficacy endpoints, which were analyzed according to randomization assignment. The Safety Population included all patients who received at least one dose of SC study treatment. This analysis set was primary for all safety endpoints, which were analyzed according to treatment received.

tanezumab: humanized immunoglobulin G Type 2 (IgG2) monoclonal antibody directed against human nerve growth factor (NGF); SEQ ID NOs: 9 or 11 and 10
Pre-specified composite joint safety endpoint events: % of patients ([1]; 2.5 mg SC): 1.8%
TJRs: % of patients ([1]; 2.5 mg SC): 7.8%
Treatment-emergent AEs: % of patients ([1]; 2.5 mg SC): 53%
incidence of serious AEs ([1]; 2.5 mg SC): 2.8%
Pre-specified composite joint safety endpoint events: % of patients ([1]; 5 mg SC): 3.2%
TJRs: % of patients ([1]; 5 mg SC): 7.0%
Treatment-emergent AEs: % of patients ([1]; 5 mg SC): 57%
incidence of serious AEs ([1]; 5 mg SC): 3.2%
deaths: patients ([2]; 2.5 mg SC, during the safety follow-up period): 2
deaths: patients ([2]; 2.5 mg SC, during the treatment period): 2
Adverse Event: % of patients ([2]; 2.5 mg SC, treatment period): 62.8%
Adverse Event: number of patients ([2]; 2.5 mg SC, treatment period): 629
Arthralgia: % of patients ([2]; 2.5 mg SC, treatment period): 13.3%
Arthralgia: number of patients ([2]; 2.5 mg SC, treatment period): 133
Back pain: % of patients ([2]; 2.5 mg SC, treatment period): 3.4%
Back pain: number of patients ([2]; 2.5 mg SC, treatment period): 34
Discontinued from study (adverse event): % of patients ([2]; 2.5 mg SC, treatment period): 2.3%
Discontinued from study (adverse event): number of patients ([2]; 2.5 mg SC, treatment period): 23
Discontinued study drug and continued study (adverse event): % of patients ([2]; 2.5 mg SC, treatment period): 5.3%
Discontinued study drug and continued study (adverse event): number of patients ([2]; 2.5 mg SC, treatment period): 53
Fall: % of patients ([2]; 2.5 mg SC, treatment period): 6.5%
Fall: number of patients ([2]; 2.5 mg SC, treatment period): 65
Headache: % of patients ([2]; 2.5 mg SC, treatment period): 5.6%
Headache: number of patients ([2]; 2.5 mg SC, treatment period): 56
Joint swelling: % of patients ([2]; 2.5 mg SC, treatment period): 4.3%
Joint swelling: number of patients ([2]; 2.5 mg SC, treatment period): 43
Musculoskeletal pain: % of patients ([2]; 2.5 mg SC, treatment period): 4.3%
Musculoskeletal pain: number of patients ([2]; 2.5 mg SC, treatment period): 43
Nasopharyngitis: % of patients ([2]; 2.5 mg SC, treatment period): 5.7%
Nasopharyngitis: number of patients ([2]; 2.5 mg SC, treatment period): 57
Osteoarthritis: % of patients ([2]; 2.5 mg SC, treatment period): 3.9%
Osteoarthritis: number of patients ([2]; 2.5 mg SC, treatment period): 39
Pain in extremity: % of patients ([2]; 2.5 mg SC, treatment period): 3.1%
Pain in extremity: number of patients ([2]; 2.5 mg SC, treatment period): 31
Paraesthesia: % of patients ([2]; 2.5 mg SC, treatment period): 1.8%
Paraesthesia: number of patients ([2]; 2.5 mg SC, treatment period): 18
Peripheral edema: % of patients ([2]; 2.5 mg SC, treatment period): 1.9%
Peripheral edema: number of patients ([2]; 2.5 mg SC, treatment period): 19
Rapidly progressive osteoarthritis (adverse event): % of patients ([2]; 2.5 mg SC, treatment period): 1.8%
Rapidly progressive osteoarthritis (adverse event): number of patients ([2]; 2.5 mg SC, treatment period): 18
Serious AE Acute kidney injury: n ([2]; 2.5 mg SC, treatment period): 0
Serious AE Acute myocardial infarction: % ([2]; 2.5 mg SC, treatment period): 1.0%
Serious AE Acute myocardial infarction: n ([2]; 2.5 mg SC, treatment period): 1
Serious AE Arthralgia: % ([2]; 2.5 mg SC, treatment period): 0.4%
Serious AE Arthralgia: n ([2]; 2.5 mg SC, treatment period): 4
Serious AE Cellulitis: n ([2]; 2.5 mg SC, treatment period): 0
Serious AE Cerebrovascular accident: % ([2]; 2.5 mg SC, treatment period): 0.2%
Serious AE Cerebrovascular accident: n ([2]; 2.5 mg SC, treatment period): 2
Serious AE Gastrointestinal hemorrhage: n ([2]; 2.5 mg SC, treatment period): 0
Serious AE Intervetebral disc protrusion: n ([2]; 2.5 mg SC, treatment period): 0
Serious AE Meniscus injury: % ([2]; 2.5 mg SC, treatment period): 0.1%
Serious AE Meniscus injury: n ([2]; 2.5 mg SC, treatment period): 1
Serious AE Osteoarthritis: % ([2]; 2.5 mg SC, treatment period): 0.9%
Serious AE Osteoarthritis: n ([2]; 2.5 mg SC, treatment period): 9
Serious AE Osteonecrosis: n ([2]; 2.5 mg SC, treatment period): 0
Serious AE Pneumonia: % ([2]; 2.5 mg SC, treatment period): 0.1%
Serious AE Pneumonia: n ([2]; 2.5 mg SC, treatment period): 1
Serious AE RPOA: % ([2]; 2.5 mg SC, treatment period): 0.3%
Serious AE RPOA: n ([2]; 2.5 mg SC, treatment period): 3
Serious AE Subchondral insufficiency fracture: % ([2]; 2.5 mg SC, treatment period): 0.1%
Serious AE Subchondral insufficiency fracture: n ([2]; 2.5 mg SC, treatment period): 1
Serious Adverse Event (any event): % of patients ([2]; 2.5 mg SC, treatment period): 5.1%
Serious Adverse Event (any event): number of patients ([2]; 2.5 mg SC, treatment period): 51
Severe Adverse Event: % of patients ([2]; 2.5 mg SC, treatment period): 4.5%
Severe Adverse Event: number of patients ([2]; 2.5 mg SC, treatment period): 45
Upper respiratory tract infection: number of patients ([2]; 2.5 mg SC, treatment period): 57
deaths: patients ([2]; 5 mg SC, after patient discontinuation from the study): 1
deaths: patients ([2]; 5 mg SC, during the safety follow-up period): 1
deaths: patients ([2]; 5 mg SC, during the treatment period): 3
Adverse Event: % of patients ([2]; 5 mg SC, treatment period): 67.1%
Adverse Event: number of patients ([2]; 5 mg SC, treatment period): 670
Arthralgia: % of patients ([2]; 5 mg SC, treatment period): 16.5%
Arthralgia: number of patients ([2]; 5 mg SC, treatment period): 165
Back pain: % of patients ([2]; 5 mg SC, treatment period): 5.5%
Back pain: number of patients ([2]; 5 mg SC, treatment period): 55
Discontinued from study (adverse event): % of patients ([2]; 5 mg SC, treatment period): 2.0%
Discontinued from study (adverse event): number of patients ([2]; 5 mg SC, treatment period): 20
Discontinued study drug and continued study (adverse event): % of patients ([2]; 5 mg SC, treatment period): 8.8%
Discontinued study drug and continued study (adverse event): number of patients ([2]; 5 mg SC, treatment period): 88
Fall: % of patients ([2]; 5 mg SC, treatment period): 5.3%
Fall: number of patients ([2]; 5 mg SC, treatment period): 53
Headache: % of patients ([2]; 5 mg SC, treatment period): 4.5%
Headache: number of patients ([2]; 5 mg SC, treatment period): 45
Joint swelling: % of patients ([2]; 5 mg SC, treatment period): 4.8%
Joint swelling: number of patients ([2]; 5 mg SC, treatment period): 48
Musculoskeletal pain: % of patients ([2]; 5 mg SC, treatment period): 4.1%
Musculoskeletal pain: number of patients ([2]; 5 mg SC, treatment period): 41
Nasopharyngitis: % of patients ([2]; 5 mg SC, treatment period): 6.7%
Nasopharyngitis: number of patients ([2]; 5 mg SC, treatment period): 67
Osteoarthritis: % of patients ([2]; 5 mg SC, treatment period): 5.4%
Osteoarthritis: number of patients ([2]; 5 mg SC, treatment period): 54
Pain in extremity: % of patients ([2]; 5 mg SC, treatment period): 3.7%
Pain in extremity: number of patients ([2]; 5 mg SC, treatment period): 37
Paraesthesia: % of patients ([2]; 5 mg SC, treatment period): 3.0%
Paraesthesia: number of patients ([2]; 5 mg SC, treatment period): 30
Peripheral edema: % of patients ([2]; 5 mg SC, treatment period): 4.3%
Peripheral edema: number of patients ([2]; 5 mg SC, treatment period): 43
Rapidly progressive osteoarthritis (adverse event): % of patients ([2]; 5 mg SC, treatment period): 4.1%
Rapidly progressive osteoarthritis (adverse event): number of patients ([2]; 5 mg SC, treatment period): 41
Serious AE Acute kidney injury: % ([2]; 5 mg SC, treatment period): 0.2%
Serious AE Acute kidney injury: n ([2]; 5 mg SC, treatment period): 2
Serious AE Acute myocardial infarction: % ([2]; 5 mg SC, treatment period): 0.1%
Serious AE Acute myocardial infarction: n ([2]; 5 mg SC, treatment period): 1
Serious AE Arthralgia: % ([2]; 5 mg SC, treatment period): 0.9%
Serious AE Arthralgia: n ([2]; 5 mg SC, treatment period): 9
Serious AE Cellulitis: % ([2]; 5 mg SC, treatment period): 0.2%
Serious AE Cellulitis: n ([2]; 5 mg SC, treatment period): 2
Serious AE Cerebrovascular accident: n ([2]; 5 mg SC, treatment period): 0
Serious AE Gastrointestinal hemorrhage: n ([2]; 5 mg SC, treatment period): 0
Serious AE Intervetebral disc protrusion: % ([2]; 5 mg SC, treatment period): 0.2%
Serious AE Intervetebral disc protrusion: n ([2]; 5 mg SC, treatment period): 2
Serious AE Meniscus injury: % ([2]; 5 mg SC, treatment period): 0.3%
Serious AE Meniscus injury: n ([2]; 5 mg SC, treatment period): 3
Serious AE Osteoarthritis: % ([2]; 5 mg SC, treatment period): 1.7%
Serious AE Osteoarthritis: n ([2]; 5 mg SC, treatment period): 17
Serious AE Osteonecrosis: % ([2]; 5 mg SC, treatment period): 0.2%
Serious AE Osteonecrosis: n ([2]; 5 mg SC, treatment period): 2
Serious AE Pneumonia: % ([2]; 5 mg SC, treatment period): 0.2%
Serious AE Pneumonia: n ([2]; 5 mg SC, treatment period): 2
Serious AE RPOA: % ([2]; 5 mg SC, treatment period): 1.1%
Serious AE RPOA: n ([2]; 5 mg SC, treatment period): 11
Serious AE Subchondral insufficiency fracture: % ([2]; 5 mg SC, treatment period): 0.4%
Serious AE Subchondral insufficiency fracture: n ([2]; 5 mg SC, treatment period): 4
Serious Adverse Event (any event): % of patients ([2]; 5 mg SC, treatment period): 8.0%
Serious Adverse Event (any event): number of patients ([2]; 5 mg SC, treatment period): 80
Severe Adverse Event: % of patients ([2]; 5 mg SC, treatment period): 6.8%
Severe Adverse Event: number of patients ([2]; 5 mg SC, treatment period): 68
Upper respiratory tract infection: number of patients ([2]; 5 mg SC, treatment period): 45
